Drawing on publication doi:10.1101/2020.05.11.088153, this text covers stoichiometry N, increase of the area under the tetramer peak and Kd for 1 substance.

Test [1] addresses βPFO_(Aβ(1-42)) tetramer (membrane-associated β-sheet pore forming tetramer of Aβ(1-42)) (UniProt P05067). Description: native MS.
The target is the same in test [2]. Description: SEC. Background: SEC sorts molecules by how far they enter the pores of the column.
The target is the same in test [3]. Description: ITC.

Several values for one entry are separate records, joined by “and”; a condition that tells them apart may be missing. Identical values can stand only once.

“somatostatin-14 (from UniProt P61278 103-116) (peptide)”: the stoichiometry N (usually the number of molecules, sites or subunits per partner or assembly) in test [1] was 1 and 2; in test [3] it was 2. In test [2], this substance had an increase of the area under the tetramer peak of 20%. In addition, the equilibrium dissociation constant (Kd) (commonly a measure of binding affinity in units of concentration) in test [3] worked out at 23 µM.
